# Measured values taken from the supplement of paper PMC10065799, “High-throughput profiling of sequence recognition by tyrosine kinases and SH2 domains using bacterial peptide display” (eLife, 2023).
# Columns and labels:
# AncSZ = assay: phosphorylation enrichment, bacterial display (enrichment ratio); higher = better substrate or ligand; peptides without Tyr show the background
# EPHB1 = EPHB1 (UniProt P54762); assay: as above
# EPHB2 = EPHB2 (UniProt P29323); assay: as above
# FGFR1 = FGFR1 (UniProt P11362); assay: as above
# FGFR1, sequence (P11362 whole entry, looked up): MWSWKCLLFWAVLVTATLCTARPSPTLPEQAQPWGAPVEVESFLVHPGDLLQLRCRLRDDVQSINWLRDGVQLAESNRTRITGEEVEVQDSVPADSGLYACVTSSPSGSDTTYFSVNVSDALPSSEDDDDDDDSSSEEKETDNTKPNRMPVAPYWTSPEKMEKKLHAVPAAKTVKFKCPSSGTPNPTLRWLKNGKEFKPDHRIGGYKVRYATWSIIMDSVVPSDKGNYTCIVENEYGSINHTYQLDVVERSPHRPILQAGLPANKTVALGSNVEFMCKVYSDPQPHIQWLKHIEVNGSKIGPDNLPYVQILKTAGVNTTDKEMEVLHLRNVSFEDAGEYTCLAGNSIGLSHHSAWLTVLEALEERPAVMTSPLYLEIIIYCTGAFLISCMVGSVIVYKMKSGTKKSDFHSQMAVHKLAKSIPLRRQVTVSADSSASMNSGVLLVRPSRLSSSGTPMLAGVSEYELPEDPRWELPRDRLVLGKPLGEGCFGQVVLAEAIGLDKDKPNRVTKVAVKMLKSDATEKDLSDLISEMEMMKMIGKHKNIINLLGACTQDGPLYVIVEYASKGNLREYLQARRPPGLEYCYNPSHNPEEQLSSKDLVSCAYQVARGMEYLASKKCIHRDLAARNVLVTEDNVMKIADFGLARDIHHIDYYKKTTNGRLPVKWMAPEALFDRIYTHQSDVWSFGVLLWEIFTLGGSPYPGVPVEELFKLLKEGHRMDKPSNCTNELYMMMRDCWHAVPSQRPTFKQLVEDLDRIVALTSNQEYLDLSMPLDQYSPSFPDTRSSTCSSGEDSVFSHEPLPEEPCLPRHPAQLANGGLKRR
# FGFR3 = FGFR3 (UniProt P22607); assay: as above
# FGFR3, sequence (P22607 whole entry, looked up): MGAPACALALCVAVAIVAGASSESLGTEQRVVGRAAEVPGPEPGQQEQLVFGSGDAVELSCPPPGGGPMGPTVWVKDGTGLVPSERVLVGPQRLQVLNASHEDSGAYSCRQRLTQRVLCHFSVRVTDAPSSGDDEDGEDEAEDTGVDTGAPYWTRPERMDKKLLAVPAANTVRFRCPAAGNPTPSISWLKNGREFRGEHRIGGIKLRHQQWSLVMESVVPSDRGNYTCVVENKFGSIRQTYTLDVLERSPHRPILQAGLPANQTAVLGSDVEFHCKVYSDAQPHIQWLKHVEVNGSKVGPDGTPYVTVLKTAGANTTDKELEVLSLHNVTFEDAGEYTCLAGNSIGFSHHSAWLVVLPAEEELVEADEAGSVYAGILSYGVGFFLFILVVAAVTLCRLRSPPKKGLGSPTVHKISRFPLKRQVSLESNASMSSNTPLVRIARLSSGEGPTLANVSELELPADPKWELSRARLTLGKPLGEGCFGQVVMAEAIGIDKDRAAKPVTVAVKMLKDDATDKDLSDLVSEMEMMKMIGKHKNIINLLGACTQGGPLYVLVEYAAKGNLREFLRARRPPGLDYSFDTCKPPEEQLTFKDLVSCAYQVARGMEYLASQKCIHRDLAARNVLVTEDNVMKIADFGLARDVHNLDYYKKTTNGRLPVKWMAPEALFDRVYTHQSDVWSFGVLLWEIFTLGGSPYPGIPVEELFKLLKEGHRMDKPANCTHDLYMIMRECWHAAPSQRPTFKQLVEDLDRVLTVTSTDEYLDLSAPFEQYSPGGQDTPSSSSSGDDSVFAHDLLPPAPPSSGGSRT
# Fer (mouse) = assay: as above
# Fes = Fes (UniProt P07332); assay: as above
# Fes, sequence (P07332 whole entry, looked up): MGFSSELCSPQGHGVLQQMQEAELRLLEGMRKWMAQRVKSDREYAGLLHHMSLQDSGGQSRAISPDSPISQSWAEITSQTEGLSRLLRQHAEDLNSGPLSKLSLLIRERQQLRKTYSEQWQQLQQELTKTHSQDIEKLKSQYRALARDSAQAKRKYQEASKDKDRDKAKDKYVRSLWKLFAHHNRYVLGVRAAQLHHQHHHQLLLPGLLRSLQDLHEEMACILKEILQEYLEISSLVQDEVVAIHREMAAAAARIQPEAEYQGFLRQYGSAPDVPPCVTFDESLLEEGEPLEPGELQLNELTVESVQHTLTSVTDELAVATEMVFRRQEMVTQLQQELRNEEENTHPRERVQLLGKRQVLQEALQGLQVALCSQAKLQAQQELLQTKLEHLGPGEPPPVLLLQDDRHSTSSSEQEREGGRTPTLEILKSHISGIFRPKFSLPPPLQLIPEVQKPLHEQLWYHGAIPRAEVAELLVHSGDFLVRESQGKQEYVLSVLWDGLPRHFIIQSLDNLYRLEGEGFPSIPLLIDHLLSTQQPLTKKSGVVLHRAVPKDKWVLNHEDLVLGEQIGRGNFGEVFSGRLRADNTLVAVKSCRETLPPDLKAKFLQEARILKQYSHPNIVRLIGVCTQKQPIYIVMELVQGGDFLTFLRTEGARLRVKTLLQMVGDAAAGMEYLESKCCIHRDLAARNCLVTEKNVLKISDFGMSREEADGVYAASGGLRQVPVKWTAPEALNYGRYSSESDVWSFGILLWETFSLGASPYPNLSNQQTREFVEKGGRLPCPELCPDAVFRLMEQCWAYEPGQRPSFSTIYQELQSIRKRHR
# Fyn = Fyn (UniProt P06241); assay: as above
# Hck = Hck (UniProt P08631); assay: as above
# Hck, sequence (P08631 whole entry, looked up): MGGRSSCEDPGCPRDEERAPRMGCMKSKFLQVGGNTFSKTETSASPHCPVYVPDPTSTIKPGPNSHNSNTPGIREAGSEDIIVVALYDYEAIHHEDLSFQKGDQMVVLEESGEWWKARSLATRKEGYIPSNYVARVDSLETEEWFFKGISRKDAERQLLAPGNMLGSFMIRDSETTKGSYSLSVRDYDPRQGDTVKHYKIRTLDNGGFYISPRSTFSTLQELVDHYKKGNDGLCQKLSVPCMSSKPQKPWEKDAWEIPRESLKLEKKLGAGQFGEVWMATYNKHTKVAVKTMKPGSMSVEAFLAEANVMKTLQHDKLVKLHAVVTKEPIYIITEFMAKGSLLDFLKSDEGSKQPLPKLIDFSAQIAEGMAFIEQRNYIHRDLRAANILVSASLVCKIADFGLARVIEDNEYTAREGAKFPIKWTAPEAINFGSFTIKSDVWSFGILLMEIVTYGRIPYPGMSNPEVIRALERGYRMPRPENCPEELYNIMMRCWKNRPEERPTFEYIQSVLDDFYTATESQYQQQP
# Jak2 = Jak2 (UniProt O60674); assay: as above
# MERTK = MERTK (UniProt Q12866); assay: as above
# MERTK, sequence (Q12866 whole entry, looked up): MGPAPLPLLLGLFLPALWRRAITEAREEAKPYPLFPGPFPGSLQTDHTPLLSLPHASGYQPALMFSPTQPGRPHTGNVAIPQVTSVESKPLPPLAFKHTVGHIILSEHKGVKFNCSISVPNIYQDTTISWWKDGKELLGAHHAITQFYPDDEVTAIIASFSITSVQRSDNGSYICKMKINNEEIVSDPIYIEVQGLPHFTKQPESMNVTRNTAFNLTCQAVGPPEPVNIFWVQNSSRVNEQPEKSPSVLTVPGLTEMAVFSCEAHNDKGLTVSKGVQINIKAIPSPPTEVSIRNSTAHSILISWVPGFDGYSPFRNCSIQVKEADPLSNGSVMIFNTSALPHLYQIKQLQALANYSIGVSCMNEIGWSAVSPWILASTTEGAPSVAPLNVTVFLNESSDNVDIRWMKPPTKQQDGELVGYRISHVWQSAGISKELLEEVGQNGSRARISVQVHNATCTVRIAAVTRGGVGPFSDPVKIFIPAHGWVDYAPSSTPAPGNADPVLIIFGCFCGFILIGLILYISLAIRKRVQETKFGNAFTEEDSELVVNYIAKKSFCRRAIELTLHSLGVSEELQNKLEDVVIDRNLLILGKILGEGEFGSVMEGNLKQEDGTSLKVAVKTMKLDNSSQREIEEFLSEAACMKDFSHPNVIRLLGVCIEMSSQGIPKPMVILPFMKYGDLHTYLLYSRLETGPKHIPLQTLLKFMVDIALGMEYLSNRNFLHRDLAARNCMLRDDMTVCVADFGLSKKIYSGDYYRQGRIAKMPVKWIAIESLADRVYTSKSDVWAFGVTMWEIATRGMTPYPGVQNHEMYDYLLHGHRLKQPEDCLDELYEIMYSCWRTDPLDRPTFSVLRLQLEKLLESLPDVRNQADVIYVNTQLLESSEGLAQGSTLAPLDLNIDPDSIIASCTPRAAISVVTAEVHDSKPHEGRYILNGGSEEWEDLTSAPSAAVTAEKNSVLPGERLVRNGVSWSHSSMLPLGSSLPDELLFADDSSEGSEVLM
# c-Abl (mouse) = assay: as above
# c-Src = assay: as above
# Grb2 SH2 = Grb2 SH2 (UniProt P62993); assay: SH2 binding enrichment of the phosphorylated peptide, bacterial display (enrichment ratio); higher = better substrate or ligand; peptides without Tyr show the background
# SHP2-C SH2 = assay: as above
# c-Src SH2 = assay: as above
# 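For SH2 binding enrichment of the phosphorylated peptide, bacterial display in this document: peptide library displayed on the E. coli surface as eCPX fusions, selected cells deep-sequenced, score is each peptide's frequency after selection divided by its frequency in the input.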
# 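For phosphorylation enrichment, bacterial display in this document: 11-residue human phosphosite peptides and single-mutation variants displayed on the E. coli surface, counted by deep sequencing, each peptide's frequency after selection divided by its frequency in the unselected input library; frequency after pTyr selection over input frequency; kinase dosed for 20-30% of maximal phosphorylation in three min.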
# EPHB2, sequence (P29323 whole entry, looked up): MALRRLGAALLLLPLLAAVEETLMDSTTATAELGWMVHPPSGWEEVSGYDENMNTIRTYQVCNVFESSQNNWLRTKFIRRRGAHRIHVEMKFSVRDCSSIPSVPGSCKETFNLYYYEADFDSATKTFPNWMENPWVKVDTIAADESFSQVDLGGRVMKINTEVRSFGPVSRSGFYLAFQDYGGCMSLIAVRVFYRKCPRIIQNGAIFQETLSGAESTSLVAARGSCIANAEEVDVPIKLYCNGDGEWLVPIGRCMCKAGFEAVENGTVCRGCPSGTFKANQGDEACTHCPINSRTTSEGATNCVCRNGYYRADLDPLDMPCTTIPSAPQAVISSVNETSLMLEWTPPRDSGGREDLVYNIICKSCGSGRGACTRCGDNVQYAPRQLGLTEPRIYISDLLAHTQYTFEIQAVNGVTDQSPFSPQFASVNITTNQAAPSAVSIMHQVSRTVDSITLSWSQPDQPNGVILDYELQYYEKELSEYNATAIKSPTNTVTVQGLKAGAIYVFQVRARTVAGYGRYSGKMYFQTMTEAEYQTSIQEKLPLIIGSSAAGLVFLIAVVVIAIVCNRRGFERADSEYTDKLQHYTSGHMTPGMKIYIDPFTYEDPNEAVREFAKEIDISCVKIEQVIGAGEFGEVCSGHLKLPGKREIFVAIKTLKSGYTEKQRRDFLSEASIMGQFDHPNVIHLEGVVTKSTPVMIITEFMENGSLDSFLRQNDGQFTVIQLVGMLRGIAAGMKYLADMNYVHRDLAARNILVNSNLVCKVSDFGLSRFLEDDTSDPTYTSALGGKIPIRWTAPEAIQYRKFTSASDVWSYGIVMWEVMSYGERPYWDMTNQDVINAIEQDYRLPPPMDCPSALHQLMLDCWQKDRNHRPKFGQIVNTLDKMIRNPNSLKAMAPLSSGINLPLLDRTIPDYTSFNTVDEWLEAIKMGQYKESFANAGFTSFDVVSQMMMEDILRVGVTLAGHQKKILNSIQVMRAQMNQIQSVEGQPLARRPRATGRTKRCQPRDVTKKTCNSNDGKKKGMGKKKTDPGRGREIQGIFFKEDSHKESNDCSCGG
SH2 binding enrichment (Grb2 SH2),SH2 binding enrichment (SHP2-C SH2),SH2 binding enrichment (c-Src SH2),Sequence,phosphorylation enrichment (AncSZ),phosphorylation enrichment (EPHB1),phosphorylation enrichment (EPHB2),phosphorylation enrichment (FGFR1),phosphorylation enrichment (FGFR3),phosphorylation enrichment (Fer (mouse)),phosphorylation enrichment (Fes),phosphorylation enrichment (Fyn),phosphorylation enrichment (Hck),phosphorylation enrichment (Jak2),phosphorylation enrichment (MERTK),phosphorylation enrichment (c-Abl (mouse)),phosphorylation enrichment (c-Src)
0.708,0.632,0.356,ILDEAYVMASV [EGFR_Y764],1.16,0.598,0.559,0.641,0.763,0.538,1.33,0.505,0.515,1.07,0.409,0.692,0.612
0.865,0.656,0.463,ILGRTYFVNHE [NEDD4_Y627_YF],0.83,0.526,0.398,0.43,0.605,0.429,0.854,0.392,0.379,0.758,0.355,0.735,0.467
0.729,0.781,0.502,ILLAGYLVMVI [SLC28A3_Y113],1.35,0.681,0.652,0.58,0.783,0.613,1.38,0.572,0.525,1.06,0.498,0.748,0.442
1.14,1.02,0.87,IMAYFYMCDRA [CASD1_Y382],1.11,0.803,0.641,1.09,1.23,0.614,1.45,0.421,0.401,1.46,0.494,1,0.487
0.723,0.501,0.498,INMKEYCKKDY [NTN1_Y490_K489E],0.824,0.461,0.462,0.447,0.595,0.615,0.944,0.451,0.477,1.29,0.364,0.661,0.429
0.934,0.692,0.756,IPVNGYQPVPA [ROR2_Y824_V819I],0.582,0.385,0.467,0.36,0.523,0.337,0.633,0.429,0.513,0.533,0.899,0.592,0.472
0.976,0.636,0.637,IQKKYYRAILE [CHD7_Y1218],0.649,0.396,0.586,0.424,0.485,0.384,0.761,0.407,0.432,0.563,0.341,0.468,0.324
0.619,0.458,0.433,IRKKFYRAILE [CHD7_Y1218_Q1214R_YF],0.569,0.386,0.58,0.426,0.444,0.42,0.62,0.57,0.455,0.797,0.618,0.568,0.658
0.775,0.732,0.488,ISHVAYRVLGK [TRRAP_Y892],0.634,0.31,0.365,0.423,0.402,0.338,0.597,0.394,0.348,0.426,0.34,0.477,0.416
0.827,0.861,10.4,ISMAGYSIPEL [EDAR_Y406_T403M],0.647,0.395,0.553,0.494,0.54,0.455,0.787,0.448,0.437,0.68,0.573,1.15,0.508
0.843,0.769,0.701,ISSLCYELLEE [TRPC6_Y896_R895C],2.07,0.986,0.654,0.748,1.23,0.924,1.66,0.597,0.747,1.36,0.777,1.13,0.928
0.832,0.754,6.86,ISSLRYELLEE [TRPC6_Y896],1.24,0.63,0.573,0.52,0.764,0.544,1.17,0.511,0.597,0.832,0.533,0.621,0.397
0.8,0.589,0.467,IVAREYFSDAD [CAMK2A_Y106_E109D_YF],0.744,0.48,0.491,0.461,0.583,0.418,0.922,0.378,0.415,0.793,0.378,0.8,0.438
0.869,0.833,3.1,IVAREYYSDAD [CAMK2A_Y106_E109D],1.04,0.775,0.647,0.657,0.633,0.589,1.13,0.473,0.525,0.959,0.41,0.828,0.559
0.75,0.749,2.01,IVAREYYSKAD [CAMK2B_Y107_E110K],0.768,0.467,0.602,0.43,0.504,0.405,0.85,0.423,0.507,0.697,0.425,0.639,0.525
0.761,0.656,0.571,IVEYAYNDKAI [PUM3_Y259],1.28,0.705,0.69,0.501,0.702,0.631,1.27,0.505,0.539,1.15,0.397,0.859,0.474
1.04,0.641,0.806,IVFTSYVLTIL [TAS2R16_Y239_F240V],1.41,0.884,0.794,0.71,1.17,0.731,1.73,0.667,0.623,1.55,0.526,1.05,0.55

SH2 binding enrichment (Grb2 SH2),SH2 binding enrichment (SHP2-C SH2),SH2 binding enrichment (c-Src SH2),Sequence,phosphorylation enrichment (AncSZ),phosphorylation enrichment (EPHB1),phosphorylation enrichment (EPHB2),phosphorylation enrichment (FGFR1),phosphorylation enrichment (FGFR3),phosphorylation enrichment (Fer (mouse)),phosphorylation enrichment (Fes),phosphorylation enrichment (Fyn),phosphorylation enrichment (Hck),phosphorylation enrichment (Jak2),phosphorylation enrichment (MERTK),phosphorylation enrichment (c-Abl (mouse)),phosphorylation enrichment (c-Src)
0.835,0.763,0.811,IVVVPYEPPEV [TP53_Y220_S215I],1.01,0.636,0.544,0.511,0.665,0.554,1.08,0.43,0.48,0.882,0.448,0.733,0.386
0.966,0.887,0.585,IVWDSYTTNKV [GNB3_Y85],1,0.675,0.559,0.501,0.635,0.519,1.2,0.546,0.528,0.895,0.307,0.718,0.359
1.2,0.89,0.846,IWGKKYPTCNS [PTPRZ1_Y53_N48I],0.697,0.441,0.491,0.432,0.607,0.518,0.776,0.369,0.406,0.667,0.407,0.628,0.397
0.982,1.1,0.719,IYLADYRIMEG [ALOX12B_Y318],1.14,1.26,1.07,2.63,2.46,0.48,1.1,0.738,0.812,1.03,3.75,0.978,1.16
1.26,1.19,0.888,KAIMTYVFSFF [ACTN4_Y260_S262F_YF],0.989,0.553,0.461,0.443,0.725,0.454,0.945,0.464,0.502,0.698,0.431,0.526,0.425
1.04,0.77,0.619,KDHPDYKYQPR [SOX10_Y171],0.668,0.362,0.381,0.492,0.481,0.435,0.595,0.458,0.463,0.509,0.387,0.687,0.412
0.945,0.949,0.516,KELANYFKLHH [AK7_Y390_YF],0.644,0.727,0.537,1.15,0.83,0.442,0.877,0.567,0.486,1.68,0.545,0.439,0.481
0.896,1.39,0.605,KELAPYDENRF [RPS19_Y48_W52R],1.05,0.594,0.553,0.48,0.79,0.579,1.36,0.485,0.512,1.05,0.5,0.983,0.577
0.83,0.571,0.526,KIITDYFVDMK [MPP4_Y566_V562I_YF],1.05,0.575,0.566,0.732,0.783,0.456,1.15,0.513,0.479,1.14,0.37,0.644,0.529
0.9,0.845,0.438,KILGRYFETGS [PAX2_Y72_YF],0.575,0.414,0.467,0.459,0.496,0.464,0.656,0.408,0.397,0.759,0.375,0.563,0.413
1.73,1.46,1.52,KKHFSYAWPFY [BRDT_Y291],1,0.622,0.428,0.495,0.564,0.385,0.965,0.456,0.425,0.647,1.22,0.493,0.375
0.769,0.609,0.491,KKLAEYGPQGK [CLCA1_Y147_R152K],0.361,0.334,0.324,0.369,0.295,0.326,0.498,0.401,0.401,0.366,0.273,0.427,0.348
0.601,0.525,0.376,KKRRSYGNSSD [SELENOK_Y52],0.554,0.472,0.394,0.383,0.395,0.417,0.582,0.448,0.511,0.475,0.51,0.479,0.525
0.702,0.709,0.542,KLFFHYDPKLC [INSR_Y457_N458D],1.01,0.643,0.516,0.423,0.67,0.47,1.25,0.342,0.327,0.961,0.382,0.948,0.361
0.82,1,0.505,KLFIEYPTGSG [IRF2BPL_Y423],0.636,0.478,0.565,0.412,0.486,0.301,0.775,0.444,0.431,0.653,0.374,0.521,0.402
0.716,0.461,0.37,KLIETYFSKNY [PLP1_Y50],0.701,0.371,0.329,0.334,0.453,0.285,0.732,0.355,0.52,0.719,0.374,0.574,0.41
